This note sets out measurements from PMC5940202, “A novel α-galactosidase from the thermophilic probiotic Bacillus coagulans with remarkable protease-resistance and high hydrolytic activity” (PLoS ONE, 2018).

By stoichiometry N is commonly meant a count of units in the complex or per binding partner. What is called Km is the substrate concentration at which the rate is half of its maximum. Usually Vmax stands for the rate approached at saturating substrate. Broadly, the kcat is the maximal rate divided by the concentration of active sites. For orientation: kcat/Km means the turnover number divided by the Michaelis constant.

Data set [1] deals with α-galactosidase Aga-BC7050 from Bacillus coagulans ATCC 7050 (Bacillus coagulans ATCC 7050). Briefly: SEC; analytical gel filtration, Superdex 200 Increase 10/300 GL, 10 mM phosphate buffer, 0.14 M NaCl, pH 7.4, 0.75 mL/min, room temperature; calibrated with albumin, lactate dehydrogenase, catalase, ferritin, thyroglobulin; native mass compared with SDS-PAGE mass. Background: SEC sorts molecules by how far they enter the pores of the column.

Data set [2] has as its target T1, Aga-BC7050 (Heyndrickxia coagulans, UniProt A0A8B4BWV9).
T1 construct: GH36 homodimer, 168 kDa by gel filtration; predicted nucleophile Asp477, acid/base Asp547
T1 sequence (A0A8B4BWV9 1-730): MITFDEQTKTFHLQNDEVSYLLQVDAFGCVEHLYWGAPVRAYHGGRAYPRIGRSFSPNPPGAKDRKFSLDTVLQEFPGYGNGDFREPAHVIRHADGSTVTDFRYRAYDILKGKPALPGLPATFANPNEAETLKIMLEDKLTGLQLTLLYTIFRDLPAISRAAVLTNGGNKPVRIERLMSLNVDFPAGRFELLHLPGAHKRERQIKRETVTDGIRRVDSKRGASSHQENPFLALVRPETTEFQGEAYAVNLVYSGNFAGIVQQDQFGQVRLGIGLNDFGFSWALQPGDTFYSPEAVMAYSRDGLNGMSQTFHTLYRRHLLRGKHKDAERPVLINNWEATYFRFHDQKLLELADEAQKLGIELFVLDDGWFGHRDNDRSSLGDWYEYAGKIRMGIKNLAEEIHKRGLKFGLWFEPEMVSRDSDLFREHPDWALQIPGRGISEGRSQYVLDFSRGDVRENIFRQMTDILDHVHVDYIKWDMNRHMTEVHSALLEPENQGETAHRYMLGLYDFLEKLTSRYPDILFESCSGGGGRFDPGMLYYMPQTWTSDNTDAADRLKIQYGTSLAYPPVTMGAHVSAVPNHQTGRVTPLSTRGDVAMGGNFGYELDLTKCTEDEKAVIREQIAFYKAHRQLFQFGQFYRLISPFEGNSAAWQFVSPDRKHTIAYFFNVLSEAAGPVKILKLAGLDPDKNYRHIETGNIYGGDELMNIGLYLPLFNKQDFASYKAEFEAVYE
The experiment in a line: pNPGal hydrolysis with added sugar. It counts as biochemical. The settings on record: substrate pNPGal; McIlvaine buffer; galactose is also the reaction product.

Substrate in data set [3]: OC[C@H]1O[C@H](OC[C@H]2O[C@H](O[C@]3(CO)O[C@H](CO)[C@@H](O)[C@@H]3O)[C@H](O)[C@@H](O)[C@@H]2O)[C@H](O)[C@@H](O)[C@H]1O
The experiment in a line: purified protein. It counts as biochemical, Heyndrickxia coagulans. The settings on record: McIlvaine buffer pH 6.0, 55 °C.

Substrate in data set [4]: O=[N+]([O-])c1ccc(O[C@H]2O[C@H](CO)[C@H](O)[C@H](O)[C@H]2O)cc1
Briefly: purified protein. Type of data set: biochemical, Heyndrickxia coagulans. The settings on record: McIlvaine buffer pH 6.0, 55 °C.

Take “α-galactosidase Aga-BC7050 from Bacillus coagulans ATCC 7050 (enzyme)”: the stoichiometry N in data set [1] came to 2.
Consider `OC[C@H]1OC(O)[C@H](O)[C@@H](O)[C@H]1O` (stereo partly shown) [galactose], for which the “% decrease of activity at 100 mM” value in data set [2] is 24.4%.

B1: Aga-BC7050 (Heyndrickxia coagulans DSM 1 = ATCC 7050) (protein)
chain: T1 sequence (A0A8B4BWV9 1-730)
notes: GH36 homodimer, 168 kDa by gel filtration; predicted nucleophile Asp477, acid/base Asp547
As for B1, in data set [3], the Michaelis constant (Km) turned out to be 53.7 ± 0.9 mM, the Vmax is 1140 µmol/min/mg, the kcat was 1610 ± 53.4 s⁻¹ and the kcat/Km amounted to 30500 M⁻¹ s⁻¹. For the same molecule, in data set [4], the Km is recorded as 1.1 ± 0.2 mM, the Vmax was 655 µmol/min/mg, the kcat is 942 ± 73.9 s⁻¹ and the kcat/Km stood at 844000 M⁻¹ s⁻¹.
